Measured values taken from patent publication US20240360248A1 (NANOMAB TECHNOLOGY, published 2024).

T1: human PTK7-Fc protein antigen (human, UniProt Q13308 31-704)
T1 construct: extracellular domain; also called human PTK7 extracellular segment protein; not shown: Fc from the pFUSE-IgG recombinant plasmid
T1 sequence (looked up): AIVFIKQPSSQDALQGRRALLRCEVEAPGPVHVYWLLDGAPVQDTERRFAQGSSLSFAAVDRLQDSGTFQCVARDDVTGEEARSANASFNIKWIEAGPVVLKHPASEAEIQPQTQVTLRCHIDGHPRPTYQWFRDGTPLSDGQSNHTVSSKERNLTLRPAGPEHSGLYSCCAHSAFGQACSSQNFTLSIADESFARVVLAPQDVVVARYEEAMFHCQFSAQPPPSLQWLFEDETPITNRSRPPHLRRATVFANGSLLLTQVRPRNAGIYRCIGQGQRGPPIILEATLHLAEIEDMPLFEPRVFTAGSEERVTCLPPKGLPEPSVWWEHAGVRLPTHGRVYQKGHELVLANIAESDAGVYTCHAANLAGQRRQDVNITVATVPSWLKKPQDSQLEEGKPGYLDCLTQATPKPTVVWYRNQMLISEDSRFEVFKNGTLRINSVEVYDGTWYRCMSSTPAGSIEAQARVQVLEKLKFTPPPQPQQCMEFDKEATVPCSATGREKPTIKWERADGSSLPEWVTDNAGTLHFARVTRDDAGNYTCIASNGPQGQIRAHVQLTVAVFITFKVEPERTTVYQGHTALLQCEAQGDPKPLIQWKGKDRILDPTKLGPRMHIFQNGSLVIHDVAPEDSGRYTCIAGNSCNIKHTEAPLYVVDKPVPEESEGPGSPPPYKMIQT

T2: PTK7-Fc antigen protein from mouse species (mouse, UniProt Q8BKG3 23-696, limits assumed)
T2 construct: also called Mouse PTK7; not shown: Fc
T2 sequence (looked up): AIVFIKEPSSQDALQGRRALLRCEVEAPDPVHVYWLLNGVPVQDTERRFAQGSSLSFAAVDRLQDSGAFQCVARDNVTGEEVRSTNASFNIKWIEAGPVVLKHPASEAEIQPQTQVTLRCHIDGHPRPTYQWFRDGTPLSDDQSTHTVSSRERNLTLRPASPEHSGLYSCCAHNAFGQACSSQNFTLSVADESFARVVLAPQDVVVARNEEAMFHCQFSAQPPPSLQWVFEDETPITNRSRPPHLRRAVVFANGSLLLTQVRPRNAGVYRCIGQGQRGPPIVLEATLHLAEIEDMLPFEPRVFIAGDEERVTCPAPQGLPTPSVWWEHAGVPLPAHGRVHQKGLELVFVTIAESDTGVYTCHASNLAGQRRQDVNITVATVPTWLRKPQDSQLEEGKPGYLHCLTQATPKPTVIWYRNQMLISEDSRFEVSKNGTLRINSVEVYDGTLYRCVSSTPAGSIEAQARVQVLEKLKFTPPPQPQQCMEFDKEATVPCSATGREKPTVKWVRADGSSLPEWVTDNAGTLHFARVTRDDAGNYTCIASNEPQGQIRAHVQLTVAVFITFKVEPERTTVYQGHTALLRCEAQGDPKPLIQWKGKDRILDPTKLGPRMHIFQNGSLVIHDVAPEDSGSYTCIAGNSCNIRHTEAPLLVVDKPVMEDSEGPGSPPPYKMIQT

T3: PTK7-His antigen protein from rhesus monkey species (rhesus monkey, UniProt F7G3Z5 39-712)
T3 construct: also called Rhesus monkey PTK7; not shown: His tag
T3 sequence: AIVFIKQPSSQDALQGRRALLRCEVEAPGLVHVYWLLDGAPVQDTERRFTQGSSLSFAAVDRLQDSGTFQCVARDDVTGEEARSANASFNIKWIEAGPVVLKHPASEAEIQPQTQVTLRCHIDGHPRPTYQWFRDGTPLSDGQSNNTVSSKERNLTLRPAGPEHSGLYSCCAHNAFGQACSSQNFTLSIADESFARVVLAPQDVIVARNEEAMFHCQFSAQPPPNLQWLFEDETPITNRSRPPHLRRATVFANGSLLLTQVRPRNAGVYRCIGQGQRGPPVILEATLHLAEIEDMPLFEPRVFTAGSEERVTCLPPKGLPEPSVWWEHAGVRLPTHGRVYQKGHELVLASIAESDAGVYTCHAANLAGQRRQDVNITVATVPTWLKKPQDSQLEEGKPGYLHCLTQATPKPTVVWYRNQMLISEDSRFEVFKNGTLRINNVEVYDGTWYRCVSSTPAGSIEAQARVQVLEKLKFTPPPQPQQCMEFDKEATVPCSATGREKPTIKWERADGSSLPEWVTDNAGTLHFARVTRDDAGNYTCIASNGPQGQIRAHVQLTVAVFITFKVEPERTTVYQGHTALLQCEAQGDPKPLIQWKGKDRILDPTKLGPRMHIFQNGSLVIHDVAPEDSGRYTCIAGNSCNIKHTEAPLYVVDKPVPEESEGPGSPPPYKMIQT


Assays:
[1] = molecular target: T1, human PTK7-Fc protein antigen; test: ELISA, antigen coated on plate, VHH in gradient dilution, anti-His/anti-HA-HRP; Kd calculated from absorbance at 450 nm
Experimental: (§1) The ELISA plates were coated with PTK7-Fc antigen proteins from human, or mouse species, or PTK7-His antigen protein from rhesus monkey species, overnight at 4° C. The plates were washed for 4 times with PBS-T the next day, added with 1% BSA, and blocked at room temperature for 2 hours. The plates were washed for 4 times with PBS-T, added with the anti-PTK7 single domain antibodies diluted in gradient, and kept at 37° C. for 1 hour. The plates were washed for 4 times with PBS-T, added with mouse anti-His-HRP antibody or mouse anti-HA-HRP antibody, and kept at 37° C. for 1 hour. The plates were washed for 4 times with PBS-T, added with TMB soluble substrate, and kept at room temperature for 10 minutes. The absorption value was read at a wavelength of 450 nm and the Kd value of each single domain antibody was calculated based on the absorption value.
(§2) The anti-PTK7 single domain antibodies of the present invention can bind to human, mouse or rhesus monkey PTK7.

[2] = molecular target: T2, PTK7-Fc antigen protein from mouse …; test: as above
Experimental: as §1, §2

[3] = molecular target: T3, PTK7-His antigen protein from rhesus …; test: as above
Experimental: as §1, §2

[4] = molecular target: T1, human PTK7-Fc protein antigen; test: SPR (Biacore 8K), human PTK7-Fc amine-coupled on CM-5 chip, VHH as analyte
Experimental: The fixed phase human PTK7-Fc antigen proteins were fixed on the surface of CM-5 sensing chip using carboxyl amino reaction. The anti-PTK7 single domain antibodies were diluted with HBS buffer to different concentrations, and the anti-PTK7 single domain antibodies were added at a flow rate of 30 μl/min, binding for 90 seconds, dissociating for 600 seconds, and the binding process between the anti-PTK7 single domain antibody and the antigen was observed. After rinsing with 10 mM glycine solution for chip regeneration, the next anti-PTK7 single domain antibody assay was proceeded.

Binder | EC50 [1] | EC50 [2] | EC50 [3] | Kd [4] | koff [4] | kon [4]
MY2132-4-22 (VHH, Camel VHH expressed in E. coli WK6 and purified on a nickel column; also called MY2132-4-22 VHH; anti-PTK7 single domain antibody) VHH: QVQLQESGGGSVQAGGSLRLSCTASGFTFDDYDMVWYRQAPGNEYEWLSTVSRGGNLYYADSVKGRFTISRDNAKNTVYLNMSRVKPEDTAVYYCAADLRSVPSTYRARTCRGRYCRDYWGQGTQVTVSS | 330 pM | 12700 pM | 300 pM | 2130 pM | 0.0322 s⁻¹ | 1.51e+07 M⁻¹ s⁻¹
MY2132-4-55 (VHH, Camel VHH expressed in E. coli WK6 and purified on a nickel column; also called MY2132-4-55 VHH; anti-PTK7 single domain antibody) VHH: QVQLQESGGGSVQAGGSLRLSCAASGYIWSRYCMGWFRQAPGKAREGVARFNSDGNTRYVDSVKGRFTISRDNAKNTLYLQMNNLQPEDTARYYCAADPRFDCGYDAVFNPTHFPYWGRGTQVTVSS | 490 pM | – | – | 180 pM | 0.000314 s⁻¹ | 1.76e+06 M⁻¹ s⁻¹
MY2132-4-79 (VHH, Camel VHH expressed in E. coli WK6 and purified on a nickel column; also called MY2132-4-79 VHH; anti-PTK7 single domain antibody) VHH: QVQLQESGGGSVQAGGSLRLSCAASGYIWSRYCMGWFRQAPGKAREGVARFNSDGNTRYVDSVKGRFTISRDNAKNTLYLQMNNLQPEDTARYYCAADPRFDCGYDAVFNPTHFPYWGQGTQVTVSS | 590 pM | – | – | 220 pM | 0.000358 s⁻¹ | 1.64e+06 M⁻¹ s⁻¹
MY2132-5-51 (VHH, Camel VHH expressed in E. coli WK6 and purified on a nickel column; also called MY2132-5-51 VHH; anti-PTK7 single domain antibody) VHH: QVQLQESGGGLVQPGGSLTLACAASGFAFSSYAMRWVRQAPGKGLEGVSSISAGGDETYYADFAKGRFTISRDNAKNTLYLQLNSLKTEDTAMYYCAKGDRNSPRYSSWPITPVGQGTQVTVSS | 610 pM | – | 1030 pM | 3450 pM | 0.00166 s⁻¹ | 482000 M⁻¹ s⁻¹
